Measurements reported in patent US20040146896A1, “Methods and compositions for diagnosing and treating companion animal cancer” (priority 2002, published 2004).

Assays:
[1] = test system: isolated human heptocytes; details: literature (Jo et al. 2000); cited from earlier work
non-human hepatocytes = details: literature (Jo et al. 2000); cited from earlier work
U937 human tumor cells = experiment: Cell Death Detection ELISA apoptosis assay, U937; type: cell-based; details: mammalian expressed TRAIL supernatants; commercial human TRAIL and Fas ligand 100 ng/ml (FIGS. 19B, 20B, 21B)
Method: 4. Cell Death Detection ELISA Plus assay for apoptosis. The assay is based on a quantitative sandwich-enzyme-immunoassay-principle using mouse monoclonal antibodies directed against DNA and histones, respectively. This allows the specific determination of mono- and oligonucleosomes in the cytoplasmatic fraction of cell lysates. Roche kit, Cat. # 1 774 425, was used for this assay. 0.1 ml of U937 or any other types of cells (2×104 ) and 0.1 ml of tissue culture supernatant or other solutions containing apoptosis inducing agents (e.g. TRAIL) were used for this assay in 48-well plate. After 24 or 48 hrs of incubation at 3 7° C., the cells were spun at 2,000 rpm for 10 minutes. Cell pellet was then resuspended in 200 ul lysis buffer and incubated for 30 minutes at room temperature. The cell lysate was then centrifuged at 2,000 rpm for 10 minutes and diluted at 1:10 with incubation buffer. 20 ul of diluted lysate was added to coated plate (MTP from kit) and 80 ul of the immunoreagent was added to each well. MTP was then covered with adhesive cover foil and incubated under gentle shaking for 2 hours at room temperature. The solution was then removed thoroughly by tapping and subsequently rinsed 3 times with 250 ul incubation buffer. 100 ul ABTS solution was added and incubated on a plate shaker at 250 rpm for 15 minutes. Readings at 405 nm and 490 nm (background) were done on ELISA reader. […]

Normal dog hepatocytes = experiment: Cell Death ELISA apoptosis assay, normal dog hepatocytes; type: cell-based; details: mammalian expressed TRAIL supernatants; Fas ligand 100 ng/ml (FIG. 21B)
Method: 4. Cell Death Detection ELISA Plus assay for apoptosis. The assay is based on a quantitative sandwich-enzyme-immunoassay-principle using mouse monoclonal antibodies directed against DNA and histones, respectively. This allows the specific determination of mono- and oligonucleosomes in the cytoplasmatic fraction of cell lysates. Roche kit, Cat. # 1 774 425, was used for this assay. 0.1 ml of U937 or any other types of cells (2×104 ) and 0.1 ml of tissue culture supernatant or other solutions containing apoptosis inducing agents (e.g. TRAIL) were used for this assay in 48-well plate. After 24 or 48 hrs of incubation at 3 7° C., the cells were spun at 2,000 rpm for 10 minutes. Cell pellet was then resuspended in 200 ul lysis buffer and incubated for 30 minutes at room temperature. The cell lysate was then centrifuged at 2,000 rpm for 10 minutes and diluted at 1:10 with incubation buffer. 20 ul of diluted lysate was added to coated plate (MTP from kit) and 80 ul of the immunoreagent was added to each well. MTP was then covered with adhesive cover foil and incubated under gentle shaking for 2 hours at room temperature. The solution was then removed thoroughly by tapping and subsequently rinsed 3 times with 250 ul incubation buffer. 100 ul ABTS solution was added and incubated on a plate shaker at 250 rpm for 15 minutes. Readings at 405 nm and 490 nm (background) were done on ELISA reader.
3. […]

hepatocyte = details: literature (Lawrence et al. 2001); cited from earlier work
various tumor cell lines = details: literature (Walczak 1999; Wiley 1995; Pitti 1996); cited from earlier work
[2] = test system: nontransformed, normal cells; details: literature (Walczak 1999; Wiley 1995; Pitti 1996); cited from earlier work
human tumors = details: mice and nonhuman primates; literature (Walczak 1999; Ashkenazi 1999); cited from earlier work

polyhistidine-tagged recombinant human TRAIL (residues 114-281): polyhistidine-tagged recombinant human TRAIL (residues 114-281), Jo et al. 2000
apoptosis in vitro in isolated human hepatocytes [1]: induce apoptosis
apoptosis in vitro in non-human hepatocytes (non-human hepatocytes): not in non-human hepatocytes

Fas ligand: Fas ligand (100 ng/ml, Upstate Biotechnology), control; well known agent which causes liver toxicity in vivo [reference compound]
induction of apoptosis of U937 cells, in words (U937 human tumor cells): sensitive
apoptosis of normal dog hepatocytes, in words (Normal dog hepatocytes): very sensitive

His-tagged TRAIL: His-tagged recombinant TRAIL version, Lawrence et al. 2001
hepatocyte toxicity (apoptosis) of recombinant TRAIL versions (hepatocyte): induced substantial apoptosis

native form of soluble TRAIL protein: native form of soluble TRAIL protein, Lawrence et al. 2001
hepatocyte toxicity (apoptosis) of recombinant TRAIL versions (hepatocyte): no effect

TRAIL protein: TNF-related apoptosis-inducing ligand as reported in the literature
apoptosis in various tumor cell lines (various tumor cell lines): induce apoptosis
apoptosis in nontransformed, normal cells [2]: not in nontransformed, normal cells
apoptosis in human tumors after administration of TRAIL (human tumors): can induce apoptosis in human tumors
cytotoxicity in normal organs or tissues (human tumors): no cytotoxicity
